Data: the supplement of paper PMC7877785
± gives the uncertainty stated by the source.

Assay: self-splicing fitness, log relative to wild type (ln ratio); higher = more splicing; Tetrahymena group I intron in knt gene, E. coli kanamycin selection, DiMSum; sequences stand for … in CUCUCU…GGAGGGAAAAGUUAUCAGGCAUGCACCUGGUAGCUAGUCUUUAAACCAAUAGAUUGCAUCGGUUUAAAAGGCAAGACCGUCAAAUUGCGGGAAAGGGGUCAACAGCCGUUCAGUACCAAGUCUCAGGGGAAACUUUGAGAUGGCCUUGCAAAGGGUAUGGUAAUAAGCUGACGGACAUGGUCCUAACCACGCAGCCAAGUCCUAAGUCAACAGAUCUUCUGUUGAUAUGGAUGCAGUUCACAGACUAAAUGUCGGUCGGGGAAGAUGUAUUCUUCUCAUAAGAUAUAGUCGGACCUCUCCUUAAUGGGAGCUAGCGGAUGAAGUGAUGCAACACUGGAGCCGCUGGGAACUAAUUUGUAUGCGAAAGUAUAUUGAUUAGUUUUGGAGUACUCGUGGUCG
Summary of the method: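 A randomised library covering all eight P1ex-region intron nucleotides was built with the intron in the knt kanamycin-resistance gene on pET-22b(+) and held in E. coli BL21(DE3). Cells were grown overnight at 37°C or 30°C on LB agar, with or without 25 μg/mL kanamycin, plus 100 μg/mL carbenicillin, 50 μM IPTG and 0.2% rhamnose, and pooled colonies were amplicon-sequenced on an Illumina HiSeq 2500. DiMSum fitness is the error-weighted combination of wild-type-normalised replicate fold changes, kanamycin versus none.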

| Sequence | self-splicing fitness (ln) (30 °C) | self-splicing fitness (ln) (37 °C) |
| --- | --- | --- |
| UCUCAGCAAUAUUACGUACU | -3.39 ± 0.28 | -1.2 ± 0.19 |
| UCUCAGCAAUAUUACGUAUA | -2.86 ± 0.17 | -1.32 ± 0.13 |
| UCUCAGCAAUAUUACGUCAU | -3.13 ± 0.2 | -3.29 ± 0.27 |
| UCUCAGCAAUAUUACGUCGU | -2.11 ± 0.091 | -1.91 ± 0.11 |
| UCUCAGCAAUAUUACGUCUU | -3.25 ± 0.17 | -2.83 ± 0.15 |
| UCUCAGCAAUAUUACGUUGG | -3.58 ± 0.14 | -3.73 ± 0.23 |
| UCUCAGCAAUAUUACGUUUG | -4.44 ± 0.19 | -3.1 ± 0.15 |
| UCUGAGCAAUAUUACGCAAG | -3.36 ± 0.18 | -2.16 ± 0.19 |
| UCUGAGCAAUAUUACGCCCU |  | -1.62 ± 0.33 |
| UCUGAGCAAUAUUACGCGGC | -4.16 ± 0.47 | -3.58 ± 0.33 |
| UCUGAGCAAUAUUACGCGUA | -2.5 ± 0.19 | 0.763 ± 0.13 |
| UCUGAGCAAUAUUACGCGUG | -2.36 ± 0.16 | -0.768 ± 0.11 |
| UCUGAGCAAUAUUACGCUCC | -2.04 ± 0.49 |  |
| UCUGAGCAAUAUUACGCUGG | -2 ± 0.16 | -1.11 ± 0.17 |
| UCUGAGCAAUAUUACGGACG | -1.17 ± 0.35 | -2.21 ± 0.45 |
| UCUGAGCAAUAUUACGGCAU | -2.79 ± 0.27 |  |
| UCUGAGCAAUAUUACGGCUA | -3.33 ± 0.42 | -2.58 ± 0.29 |
| UCUGAGCAAUAUUACGGGUG | -3.83 ± 0.19 | -2.42 ± 0.14 |
| UCUGAGCAAUAUUACGGUAA | -2.84 ± 0.33 | -2.24 ± 0.3 |
| UCUGAGCAAUAUUACGUAAU | -3.33 ± 0.23 | -2.12 ± 0.29 |
| UCUGAGCAAUAUUACGUCGA | -0.0432 ± 0.089 | 0.353 ± 0.12 |
| UCUGAGCAAUAUUACGUGCG | -3 ± 0.1 | -1.34 ± 0.09 |
| UCUGAGCAAUAUUACGUGUU | -3.93 ± 0.27 | -2.55 ± 0.23 |
| UCUGAGCAAUAUUACGUUCA | -2.84 ± 0.18 | -2.87 ± 0.28 |
| UCUUAGCAAUAUUACGAAGC | -2.94 ± 0.21 | -2.05 ± 0.17 |

| Sequence | self-splicing fitness (ln) (30 °C) | self-splicing fitness (ln) (37 °C) |
| --- | --- | --- |
| UCUUAGCAAUAUUACGAGCA | -0.901 ± 0.15 | -0.00766 ± 0.15 |
| UCUUAGCAAUAUUACGAGGU | -3.29 ± 0.29 | -1.82 ± 0.2 |
| UCUUAGCAAUAUUACGAGUC |  | -2.22 ± 0.36 |
| UCUUAGCAAUAUUACGCAAA | -1.56 ± 0.32 | -2.31 ± 0.29 |
| UCUUAGCAAUAUUACGCAAU |  | -2.53 ± 0.36 |
| UCUUAGCAAUAUUACGCCGU | -2.05 ± 0.16 | -0.32 ± 0.17 |
| UCUUAGCAAUAUUACGCCUA |  | -2.71 ± 0.41 |
| UCUUAGCAAUAUUACGCGUA | -3.4 ± 0.24 | -1.38 ± 0.15 |
| UCUUAGCAAUAUUACGCUCU | -1.99 ± 0.24 | -1.61 ± 0.29 |
| UCUUAGCAAUAUUACGGAAC | -0.987 ± 0.34 | -1.99 ± 0.43 |
| UCUUAGCAAUAUUACGGAGG | -2.67 ± 0.34 | -2.17 ± 0.31 |
| UCUUAGCAAUAUUACGGCAA |  | -1.57 ± 0.37 |
| UCUUAGCAAUAUUACGGGAG | -2.63 ± 0.49 | -2.41 ± 0.35 |
| UCUUAGCAAUAUUACGGUAA | -2.62 ± 0.23 | -1.7 ± 0.32 |
| UCUUAGCAAUAUUACGGUAC | -3.68 ± 0.41 | -2.51 ± 0.48 |
| UCUUAGCAAUAUUACGGUCG | -0.895 ± 0.16 | -1.37 ± 0.33 |
| UCUUAGCAAUAUUACGGUGU | -2.83 ± 0.12 | -1.23 ± 0.12 |
| UCUUAGCAAUAUUACGGUUU | -3.61 ± 0.22 | -1.77 ± 0.2 |
| UCUUAGCAAUAUUACGUAGA | -1.15 ± 0.21 | -0.474 ± 0.18 |
| UCUUAGCAAUAUUACGUGCU | -3.12 ± 0.38 | -2.37 ± 0.48 |
| UCUUAGCAAUAUUACGUGUU | -2.67 ± 0.15 | -2.3 ± 0.25 |
| UCUUAGCAAUAUUACGUUCA | -2.92 ± 0.14 | -1.85 ± 0.11 |
| UCUUAGCAAUAUUACGUUGC | -3.46 ± 0.47 |  |
| UGAAAGCAAUAUUACGAACC | -1.55 ± 0.17 | -1.16 ± 0.22 |
| UGAAAGCAAUAUUACGACUA | -0.403 ± 0.08 | 0.139 ± 0.11 |

| Sequence | self-splicing fitness (ln) (30 °C) | self-splicing fitness (ln) (37 °C) |
| --- | --- | --- |
| UGAAAGCAAUAUUACGAGCG | 0.46 ± 0.072 | -0.171 ± 0.085 |
| UGAAAGCAAUAUUACGAGGG | -2.91 ± 0.17 | -3.6 ± 0.42 |
| UGAAAGCAAUAUUACGAUUG | -0.872 ± 0.11 | -0.573 ± 0.14 |
| UGAAAGCAAUAUUACGCGCC | -0.832 ± 0.21 | -0.728 ± 0.23 |
| UGAAAGCAAUAUUACGCUUA | -1.26 ± 0.17 | -0.254 ± 0.17 |
| UGAAAGCAAUAUUACGGAAA | -1.83 ± 0.18 | -1.29 ± 0.17 |
| UGAAAGCAAUAUUACGGAGA | -3.09 ± 0.2 | -2.54 ± 0.23 |
| UGAAAGCAAUAUUACGGAUU | -1.99 ± 0.17 | -1.09 ± 0.18 |
| UGAAAGCAAUAUUACGGCAG | -0.742 ± 0.094 | -0.105 ± 0.11 |
| UGAAAGCAAUAUUACGGGAA | -2.6 ± 0.14 | -1.62 ± 0.12 |
| UGAAAGCAAUAUUACGGGUG | -0.621 ± 0.051 | -0.399 ± 0.069 |
| UGAAAGCAAUAUUACGGUCU | -0.0503 ± 0.077 | -0.209 ± 0.085 |
| UGAAAGCAAUAUUACGGUGC | -2.02 ± 0.38 | -2.61 ± 0.36 |
| UGAAAGCAAUAUUACGGUUA | -0.156 ± 0.07 | -0.217 ± 0.064 |
| UGAAAGCAAUAUUACGUAGC | -3.52 ± 0.37 | -1.5 ± 0.36 |
| UGAAAGCAAUAUUACGUCAU | -4.25 ± 0.22 | -1.77 ± 0.14 |
| UGAAAGCAAUAUUACGUCGA | -0.893 ± 0.08 | -0.374 ± 0.1 |
| UGAAAGCAAUAUUACGUCUA | -0.288 ± 0.12 | 0.146 ± 0.11 |
| UGAAAGCAAUAUUACGUGAC | -3.86 ± 0.29 | -2.01 ± 0.17 |
| UGAAAGCAAUAUUACGUGGG | -3.67 ± 0.2 | -2.4 ± 0.17 |
| UGAAAGCAAUAUUACGUGGU | -3.22 ± 0.17 | -2.55 ± 0.23 |
| UGACAGCAAUAUUACGAACC | -2.97 ± 0.25 | -1.37 ± 0.22 |
| UGACAGCAAUAUUACGACGC | -1.83 ± 0.13 | -1.25 ± 0.19 |
| UGACAGCAAUAUUACGACUA | -0.585 ± 0.087 | 0.416 ± 0.1 |
| UGACAGCAAUAUUACGCAUU | -3.85 ± 0.18 | -2.4 ± 0.14 |

| Sequence | self-splicing fitness (ln) (30 °C) | self-splicing fitness (ln) (37 °C) |
| --- | --- | --- |
| UGACAGCAAUAUUACGCCAC | -3.66 ± 0.32 | -1.43 ± 0.27 |
| UGACAGCAAUAUUACGCCAU | -3.25 ± 0.29 | -1.51 ± 0.26 |
| UGACAGCAAUAUUACGCGAG | -2.36 ± 0.11 | -2.06 ± 0.077 |
| UGACAGCAAUAUUACGCGCA | -0.495 ± 0.072 | 0.187 ± 0.077 |
| UGACAGCAAUAUUACGCGUU | -3.69 ± 0.16 | -2.75 ± 0.17 |
| UGACAGCAAUAUUACGGAUA | -1.25 ± 0.095 | -0.669 ± 0.11 |
| UGACAGCAAUAUUACGGCAG | -0.0451 ± 0.065 | 0.0375 ± 0.079 |
| UGACAGCAAUAUUACGGGCU | -2.75 ± 0.16 | -1.57 ± 0.097 |
| UGACAGCAAUAUUACGGGGU | -4.41 ± 0.31 | -2.38 ± 0.23 |
| UGACAGCAAUAUUACGGGUA | -1.07 ± 0.055 | -0.216 ± 0.062 |
| UGACAGCAAUAUUACGGUAA | -1.85 ± 0.12 | -0.692 ± 0.11 |
| UGACAGCAAUAUUACGGUUA | -0.746 ± 0.073 | -0.364 ± 0.065 |
| UGACAGCAAUAUUACGUAAC | -4.4 ± 0.46 | -2.38 ± 0.19 |
| UGACAGCAAUAUUACGUCCC | -0.969 ± 0.17 | -1.51 ± 0.36 |
| UGACAGCAAUAUUACGUCCG | -0.00105 ± 0.12 | -0.342 ± 0.13 |
| UGACAGCAAUAUUACGUUCG | -0.885 ± 0.068 | -0.194 ± 0.075 |
| UGAGAGCAAUAUUACGAAAG | -5.04 ± 0.28 | -2.86 ± 0.25 |
| UGAGAGCAAUAUUACGACUC | -2.96 ± 0.47 | -2.73 ± 0.45 |
| UGAGAGCAAUAUUACGAGAC | -4.44 ± 0.46 | -2.59 ± 0.29 |
| UGAGAGCAAUAUUACGAGAG |  | -1.16 ± 0.36 |
| UGAGAGCAAUAUUACGAGUG | -4.04 ± 0.29 | -2.93 ± 0.26 |
| UGAGAGCAAUAUUACGAUGA |  | -2.48 ± 0.3 |
| UGAGAGCAAUAUUACGCGGA | -3.34 ± 0.47 | -1.49 ± 0.46 |
